Measured values reported in patent US20180057581A1 (MorphoSys, published 2018).

Columns and labels:
Assay in all cases: MSD specificity profiling, coated protein, Camille at 100 nM
[1] = target: T1, Fibrinogen (bovine) (bovine, UniProt P02672 20-615; P02676 1-468; P12799 25-444)
T1 sequence (looked up) 1: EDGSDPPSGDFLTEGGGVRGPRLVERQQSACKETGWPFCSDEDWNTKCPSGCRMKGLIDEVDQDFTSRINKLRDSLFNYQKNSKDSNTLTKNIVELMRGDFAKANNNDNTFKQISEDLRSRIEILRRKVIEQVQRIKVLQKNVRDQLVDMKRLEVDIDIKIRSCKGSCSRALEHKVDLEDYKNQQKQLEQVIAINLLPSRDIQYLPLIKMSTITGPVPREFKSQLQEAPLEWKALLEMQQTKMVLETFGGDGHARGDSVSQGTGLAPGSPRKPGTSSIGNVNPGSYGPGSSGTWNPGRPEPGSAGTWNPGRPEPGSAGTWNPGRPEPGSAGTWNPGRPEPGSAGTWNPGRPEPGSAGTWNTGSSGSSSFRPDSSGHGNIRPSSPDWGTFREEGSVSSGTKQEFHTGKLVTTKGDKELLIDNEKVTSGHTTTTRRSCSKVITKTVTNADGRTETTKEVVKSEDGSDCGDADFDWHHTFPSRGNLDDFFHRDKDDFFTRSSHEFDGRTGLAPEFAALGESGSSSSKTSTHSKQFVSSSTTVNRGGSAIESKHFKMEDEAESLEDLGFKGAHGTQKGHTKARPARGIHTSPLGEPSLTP
T1 sequence (looked up) 2: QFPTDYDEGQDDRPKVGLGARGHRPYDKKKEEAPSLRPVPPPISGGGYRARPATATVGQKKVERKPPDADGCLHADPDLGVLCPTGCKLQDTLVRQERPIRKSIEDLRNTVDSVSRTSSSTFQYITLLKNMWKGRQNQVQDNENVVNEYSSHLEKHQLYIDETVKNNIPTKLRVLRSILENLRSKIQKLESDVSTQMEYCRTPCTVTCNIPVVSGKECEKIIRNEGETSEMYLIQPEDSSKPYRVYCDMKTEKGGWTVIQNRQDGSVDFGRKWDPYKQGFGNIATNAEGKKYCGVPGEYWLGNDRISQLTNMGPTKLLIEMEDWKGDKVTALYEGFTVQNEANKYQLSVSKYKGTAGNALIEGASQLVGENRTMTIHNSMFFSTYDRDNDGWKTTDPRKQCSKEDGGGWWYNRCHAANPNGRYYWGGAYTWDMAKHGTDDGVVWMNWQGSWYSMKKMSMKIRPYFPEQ
T1 sequence (looked up) 3: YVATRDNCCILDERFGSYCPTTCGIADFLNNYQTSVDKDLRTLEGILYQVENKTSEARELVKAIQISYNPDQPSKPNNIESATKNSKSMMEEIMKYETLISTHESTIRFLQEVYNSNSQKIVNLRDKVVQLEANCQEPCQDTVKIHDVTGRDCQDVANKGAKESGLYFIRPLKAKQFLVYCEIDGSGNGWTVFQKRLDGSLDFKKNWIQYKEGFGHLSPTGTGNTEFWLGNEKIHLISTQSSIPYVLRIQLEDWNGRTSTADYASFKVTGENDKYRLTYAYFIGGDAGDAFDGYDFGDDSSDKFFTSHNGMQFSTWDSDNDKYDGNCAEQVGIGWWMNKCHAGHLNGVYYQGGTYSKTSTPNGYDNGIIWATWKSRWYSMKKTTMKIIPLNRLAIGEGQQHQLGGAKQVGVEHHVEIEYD
Procedure: (§1) For this specificity profiling test the different proteins and controls were coated on two 384-well MSD plates with a concentration of 1 μg/ml at 4° C. over night. Plates were blocked with BSA and washed three times with PBS with 0.05% (v/v) Tween 20. Antibody samples were diluted to 100 nM and 10 nM in assay buffer (PBS with 0.5% (w/v) BSA, 0.05% (v/v) Tween 20). […] Samples and controls were incubated for three hours at room temperature. The plates were washed three times and 30 μl detection antibody (ECL-labeled anti-human Fab) were added per well and incubated for 1 h. After washing, MSD Read Buffer T with surfactant was added and electrochemiluminescence signals were detected using a Sector Imager 6000 (Meso Scale Discovery, Gaithersburg, Md., USA).

[2] = target: Aminogylcosidase (Aspergillus niger) (Aspergillus niger)
Procedure: as §1

[3] = target: Cytokine 2 (human) (human)
Procedure: as §1

[4] = target: Lysozyme (chicken) (chicken, UniProt P00698 19-147)
Procedure: as §1

[5] = target: T2, Ovalbumin (chicken) (chicken, UniProt P01012 2-386)
T2 sequence (looked up): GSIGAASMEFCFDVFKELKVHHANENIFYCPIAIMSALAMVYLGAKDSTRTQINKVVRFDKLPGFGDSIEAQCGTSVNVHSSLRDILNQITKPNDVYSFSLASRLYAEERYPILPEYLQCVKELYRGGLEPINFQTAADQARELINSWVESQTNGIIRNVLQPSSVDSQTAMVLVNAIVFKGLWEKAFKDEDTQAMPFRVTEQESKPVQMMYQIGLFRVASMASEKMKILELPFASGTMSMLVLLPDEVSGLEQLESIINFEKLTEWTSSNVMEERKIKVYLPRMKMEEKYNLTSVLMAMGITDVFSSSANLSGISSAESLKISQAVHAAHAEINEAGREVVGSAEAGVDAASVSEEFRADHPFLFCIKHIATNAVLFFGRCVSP
Procedure: as §1

[6] = target: T3, Lectin (Lens culinaris) (Lens culinaris, UniProt P02870 31-210; P02870 218-269, limits assumed)
T3 sequence (looked up) 1: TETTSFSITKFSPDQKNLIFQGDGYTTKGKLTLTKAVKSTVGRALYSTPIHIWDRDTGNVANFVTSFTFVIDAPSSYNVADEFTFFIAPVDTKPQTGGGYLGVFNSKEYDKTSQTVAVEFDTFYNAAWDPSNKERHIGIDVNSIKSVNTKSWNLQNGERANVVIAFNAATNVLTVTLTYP
T3 sequence (looked up) 2: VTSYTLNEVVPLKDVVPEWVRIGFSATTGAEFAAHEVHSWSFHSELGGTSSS
Procedure: as §1

Chain of Aminogylcosidase (Aspergillus niger) (Aspergillus niger) (P69328 25-640): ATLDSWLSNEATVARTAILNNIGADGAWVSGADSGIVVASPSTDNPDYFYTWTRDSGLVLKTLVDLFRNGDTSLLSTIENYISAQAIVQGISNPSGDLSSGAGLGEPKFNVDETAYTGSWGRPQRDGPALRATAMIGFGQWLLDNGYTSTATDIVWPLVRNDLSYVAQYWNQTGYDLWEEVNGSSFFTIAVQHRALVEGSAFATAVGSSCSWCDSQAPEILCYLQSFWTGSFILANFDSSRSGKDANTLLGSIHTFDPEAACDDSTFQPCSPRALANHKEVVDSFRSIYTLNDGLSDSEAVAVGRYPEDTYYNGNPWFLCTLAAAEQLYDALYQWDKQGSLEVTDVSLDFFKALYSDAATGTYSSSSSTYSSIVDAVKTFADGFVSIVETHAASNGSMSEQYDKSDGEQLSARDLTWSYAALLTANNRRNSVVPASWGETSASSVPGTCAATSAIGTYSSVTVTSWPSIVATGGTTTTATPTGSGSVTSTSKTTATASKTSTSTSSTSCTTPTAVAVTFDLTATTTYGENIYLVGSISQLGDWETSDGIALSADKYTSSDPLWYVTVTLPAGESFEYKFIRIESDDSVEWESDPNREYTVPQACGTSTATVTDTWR
Chain of Lysozyme (chicken) (P00698 19-147): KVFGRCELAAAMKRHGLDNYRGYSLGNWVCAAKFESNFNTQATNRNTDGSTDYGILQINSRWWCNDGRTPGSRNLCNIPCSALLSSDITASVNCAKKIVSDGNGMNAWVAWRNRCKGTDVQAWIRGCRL

B1: Camille (format not stated) (antibody, V domains shown)
VH: QVQLQQSGPGLVKPSQTLSLTCAISGESVSTSSAAWNWIRQSPSRGLEWLGRTYYRSKWKHEYAVSVKSRITINPDTSKNQFSLQLNSVTPEDTAVYYCARDRYYYSAFDYWGQGTLVTVSS
VL: QSALTQPASVSGSPGQSITISCTGTSSDVGGYNSVSWYQQHPGKAPKLLIYAVSNRPSGVSNRFSGSKSGNTASLTISGLQAEDEADYYCASYDERFTRVFGGGTKLTVLG
notes: also called Antibody Camille
signal normalized to reference antibody MOR03207 [1]: 1 ratio | signal normalized to reference antibody MOR03207 [2]: 1 ratio | signal normalized to reference antibody MOR03207 [3]: 2 ratio | signal normalized to reference antibody MOR03207 [4]: 0 ratio | signal normalized to reference antibody MOR03207 [5]: 1 ratio | signal normalized to reference antibody MOR03207 [6]: 1 ratio
